Assays:
[1] = tested on: human phosphatase inhibitor-1 (I-1) wild type, dephosphorylated
[2] = tested on: human I-1 (T75A), unphosphorylated
[3] = tested on: human I-1 (S67A), unphosphorylated
human I-1 (S67D/T75D) = tested on: T1, human I-1 (S67D/T75D)
T1 sequence: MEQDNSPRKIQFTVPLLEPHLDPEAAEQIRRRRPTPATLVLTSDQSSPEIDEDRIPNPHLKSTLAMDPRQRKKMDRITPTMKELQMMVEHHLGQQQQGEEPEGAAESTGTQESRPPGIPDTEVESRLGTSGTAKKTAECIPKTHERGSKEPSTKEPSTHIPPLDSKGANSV

Substance | stoichiometry of phosphorylation at 45 min [1] | 32P incorporation upon PKC-α incubation (human I-1 (S67A/T75A)) | 32P incorporated per protein at 45 min, percent of wild type [2] | stoichiometry of phosphorylation at 45 min [2] | 32P incorporated per protein at steady state (20-45 min), percent of wild type [3] | stoichiometry of phosphorylation at 45 min [3] | 32P incorporation upon PKA incubation, decrease against wild-type (human I-1 (S67D/T75D))
Protein Kinase C alpha (PKC-α), Upstate Biotechnology | I-1 wild-type was phosphorylated by PKC-α for 45 min to a stoichiometry of 0.88 mol Pi/mol protein | mutation of both Ser-67 and Thr-75 to Ala abolishes ^32P-incorporation into I-1 | I-1 (T75A) incorporated 33.8±12.7% of the levels in wild type (100%) | the incorporation of Pi into I-1(S67A) and I-1(T75A) were reduced to 0.35 and 0.30 mol Pi/mol protein, respectively | I-1 (S67A) incorporated 40±8.6% of the radioactivity levels present in wild types (100%) | the incorporation of Pi into I-1(S67A) and I-1(T75A) were reduced to 0.35 and 0.30 mol Pi/mol protein, respectively | 
Protein Kinase A (PKA, cAMP-dependent protein kinase), Upstate Biotechnology |  |  |  |  |  |  | the double mutant incorporated 29% less radioactivity than the wild-type

Source: patent US20120053125
